Two substances from publication doi:10.1101/2020.09.16.300517 can be followed below.

A word on the stoichiometry N: it is a count of units in the complex or per binding partner. As a reminder, the Kd is the free concentration of one partner at which half of the binding sites on the other are occupied at equilibrium, for simple one-to-one binding. A lower Kd goes with tighter binding.

For assay [1], the target named is phalloidin-stabilized pyrene-labeled F-actin (rabbit) (UniProt P68135). In words: other fluorescence titration.
In assay [2] the target is bovine cardiac ventricular β-myosin subfragment 1 (α-chymotryptic S1) (bovine). In words: stopped-flow fluorescence kinetics.

“And” between values parts separate entries of the source, which are not always exact repeats. Equal values may be shown once.

With “bovine cardiac ventricular β-myosin subfragment 1 (α-chymotryptic S1) (domain or fragment)”, in assay [1], the PFA fluorescence restored by MgATP, with Mava stood at 84%; the PFA fluorescence restored by MgATP, with OM came out at 65%; the decrease in pyrene fluorescence intensity at S1:actin 0.7:1 is 46%; the stoichiometry N came out at 1 S1 per actin.

In the case of “phalloidin-stabilized pyrene-labeled F-actin (from UniProt P68135 1-377) (natural protein)”, the Kd in assay [2] was 48 nM and 57 nM.
